Drawing on patent US20210079037A1, “LIGHT-SWITCHABLE POLYPEPTIDE AND USES THEREOF” (TECHNISCHE UNIVERSITÄT MÜNCHEN, priority 2017, published 2021), this text covers Kd for 1 molecule.

Numbered stars: 1 amine (or outer) side, 2 acyl side, 3 side chain; on linkers, the order of the positions; unused ones are H or OH. Square brackets hold non-standard residues; d marks the D form. Caf = 4′-carboxyphenylazophenylalanine, O=C([C@H](Cc1ccc(/N=N/c2ccc(C(=O)[*:3])cc2)cc1)N[*:1])[*:2]

The target of this test is mouse anti-6×His antibody alkaline phosphatase (AP) conjugate (Arigo Biolaboratories). Description: ELISA, curve fit; ProtL^Caf337-ABD in a dilution series on HSA-coated plate, Ig-AP conjugate at 1:1000; ground state (trans-Caf).

B1: ProtL^Caf337-ABD (designed binder)
chain: MKEEVTIKVNLI[Caf]ADGKTQTAEFKGTFEEATAKAYANADLSAKENGEYTADLEDGGNTINIKFAGGAVDANSLAEAKVLANRELDKYGVSDYYKNLINNAKTVEGVKALIDEILAALP
On to B1, for which the Kd turned out to be 140 nM.

As usually defined, the Kd is the equilibrium constant for the complex coming apart. Lower therefore signals tighter binding.
